The target of assay [1] is human IL-8 (human) (UniProt P10145). The experiment in a line: homogeneous immuno-SDA with reversed probe RBD-3v3, 0.1 pM IL-8 in binding mixture, 20 pM Ab1-SA-P1 with 100 pM Ab2-P2 (G265-5-LHP-3), 50 nM blocker RDB-3z8.
The target is the same in assay [2]. The experiment in a line: homogeneous immuno-SDA, 1,000 pM IL-8 in binding mixture, 1 nM Ab1-SA-P1 with 1 nM Ab2-P2 (G265-5-LHP-3) as second proximity member.
For assay [3] the target is unchanged. As to the kind of experiment: homogeneous immuno-SDA with tether oligonucleotide, 100 pM IL-8 in binding mixture, 1 nM Ab1-SA-TO plus RHP-3 with 1 nM Ab2-P2 (G265-5-LHP-3).
The target is the same in assay [4]. The experiment in a line: homogeneous immuno-SDA, 10 pM IL-8 in binding mixture, 1 nM Ab1-SA-P1 with 1 nM Ab2-P2 (G265-5-LHP-3) as second proximity member; signal needs both antibodies on IL-8.
The target is the same in assay [5]. The experiment in a line: homogeneous immuno-SDA, 100 pM IL-8 in binding mixture, 1 nM Ab1-SA-P1 with 1 nM Ab2-P2 (G265-5-LHP-3) as second proximity member.
Assay [6] shares this target. The experiment in a line: homogeneous immuno-SDA with tether oligonucleotide, 10 pM IL-8 in binding mixture, 1 nM Ab1-SA-TO plus RHP-3 with 1 nM Ab2-P2 (G265-5-LHP-3).
Assay [7] has the same target. As to the kind of experiment: homogeneous immuno-SDA with reversed probe RBD-3v3, 0.25 pM IL-8 in binding mixture, 20 pM Ab1-SA-P1 with 100 pM Ab2-P2 (G265-5-LHP-3), 50 nM blocker RDB-3z8.
The target is the same in assay [8]. The experiment in a line: homogeneous immuno-SDA with reversed probe RBD-3v3, 0.5 pM IL-8 in binding mixture, 20 pM Ab1-SA-P1 with 100 pM Ab2-P2 (G265-5-LHP-3), 50 nM blocker RDB-3z8.
The target is the same in assay [9]. As to the kind of experiment: homogeneous immuno-SDA with reversed probe RBD-3v3, 1.0 pM IL-8 in binding mixture, 20 pM Ab1-SA-P1 with 100 pM Ab2-P2 (G265-5-LHP-3), 50 nM blocker RDB-3z8.

Sequence of human IL-8 (human) (P10145 28-99 limits assumed): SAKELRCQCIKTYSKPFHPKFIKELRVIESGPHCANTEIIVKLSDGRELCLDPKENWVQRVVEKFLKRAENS
Sequence of MAb G265-8 (BD Bioscience Pharmingen), directed against human IL-8, covalently coupled to streptavidin (anti-IL-8 IgG-SA conjugate) (P22629 37-163): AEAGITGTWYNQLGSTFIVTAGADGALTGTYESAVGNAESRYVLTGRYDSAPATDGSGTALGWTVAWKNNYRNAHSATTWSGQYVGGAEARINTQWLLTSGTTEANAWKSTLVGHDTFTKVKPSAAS

As for “MAb G265-8 (BD Bioscience Pharmingen), directed against human IL-8, covalently coupled to streptavidin (anti-IL-8 IgG-SA conjugate) (from UniProt P22629 37-163) (antibody)”, the Average MOTA (n = 4) with human IL-8 (human) [1] worked out at 23100; with human IL-8 (human) [7], 81600; in the assay with human IL-8 (human) [8], 118000; with human IL-8 (human) [9], 129000. The Average MOTA (n = 6) in the assay with human IL-8 (human) [2] is 129000; in the assay with human IL-8 (human) [3], 32200; in the assay with human IL-8 (human) [4] it was 3980; with human IL-8 (human) [5], 73900; in the assay with human IL-8 (human) [6] it was 505.

These data come from US20110244457A1.
